Series [1] concerns the target T1, TXNDC5 (wild type) (Homo sapiens, UniProt Q8NBS9 Q8NBS9:33-432). The experiment in a line: inhibition; insulin reduction turbidity assay, 0.5 mM DTT, potassium phosphate, EDTA, pH 7. As to conditions: tags: Ni-column purified, baculovirus/insect cells, Sino Biological. How it is done:
An insulin/assay buffer is prepared by adding 1.6 mM insulin (which is prepared by dissolving insulin in 0.1 N HCl) with the assay buffer consisted of 100 mM potassium phosphate and 0.2 mM EDTA (pH 7). The volume of each insulin/assay buffer is 15 μl, wherein the volume of insulin is 6 μl and the volume of assay buffer is 9 μl.
Each of the above mixtures of aptamers (Ap-3, Ap7 and Ap-11) with different concentrations and human wild type TXNDC5 is added with a corresponding insulin/assay buffer separately. That is, aptamer-3, aptamer-7 and aptamer-11 have seven experimental group samples (with different concentrations, 7.8125 μM, 15.625 μM, 31.25 μm, 62.5 μM, 125 μM, 250 μM and 500 μM) separately. An insulin/assay buffer which is not added with the above mixture of aptamers and human wild type TXNDC5 is prepared as the control group sample.

Series [2] addresses T2, TXNDC5 (Mus musculus, UniProt Q91W90 Q91W90:34-417). The series can be described thus: magnetic nanoparticle (MARAS) pulldown with q-PCR, nonlinear regression. As to conditions: tags: Ni-column purified, baculovirus/insect cells, Sino Biological; double stem-loop (predicted). The method, then:
(§1) For further determining the binding efficiency of TXNDC5-targeting aptamers, the Kd values, as the indicator of aptamer and target molecule interaction, of aptamer-3 and aptamer-7 are measured by q-PCR, and the results were fitted with nonlinear regression. The method of measuring the Kd values of aptamer-3 and aptamer-7 is illustrated as following.
(§2) Aptamer-3 and aptamer-7 are isolated and progressively diluted in series from 100 to 3.125 nM, aptamer-3 and aptamer-7 are folded in the binding buffer as the procedures mentioned above. Equal amounts of either mouse-MNPs or humane-MNPs are mixed with aptamer-3 and aptamer-7 and followed the MARAS and q-PCR procedure as described above to specifically bind to aptamer-3 and aptamer-7. The Kd values of aptamer-3 and aptamer-7 are measured by fitting the results of each Ct value from q-PCR and the concentrations in a nonlinear regression through PRISM 8 (Graphpad). Each result is performed in duplicate to reduce the errors.

In series [3] the target is T1, TXNDC5 (wild type). Described as above. As to conditions: tags: Ni-column purified, baculovirus/insect cells, Sino Biological; double stem-loop (predicted). How it is done: as §1, §2
The target of series [4] is T2, TXNDC5. The experiment in a line: q-PCR of eluted aptamer; specific and strong binding to mouse TXNDC5. As to conditions: tags: Ni-column purified, baculovirus/insect cells, Sino Biological; single stem-loop (predicted). The method, then:
The 100 nM of aptamer-3, aptamer-7 and aptamer-11 are folded in the binding buffer via the procedures as mentioned above. 20 nM of Aptamer-3, aptamer-7 and aptamer-11 are taken individually and hybridized with positive-(mouse and human TXNDC5, 5 μl) and negative-(serum and catalytic-death TXNDC5, 5 μl) MNPs, and the hybridized aptamers-MNPs are processed according to the above MARAS procedures. Aptamer-3, aptamer-7 and aptamer-11 bound with MNPs are collected and eluted by heating to 95° C. for 5 min in 100 μl ddH₂O.
The amounts of aptamer-3, aptamer-7 and aptamer-11 are detected by q-PCR and the relative expression levels are utilized as outcomes. The process of detecting the amounts of aptamer-3, aptamer-7 and aptamer-11 by q-PCR is set forth as following. To measure the relative expression of aptamer-3, aptamer-7 and aptamer-11, the q-PCR is performed in 96-well plates with BioRad CFX Connect system. The fivefold-diluted eluted aptamer-3, aptamer-7 and aptamer-11 are individually dissolved in test tubes filled with 100 μl of RNase-free water. […]

T1 sequence (Q8NBS9 33-432, one chain of several): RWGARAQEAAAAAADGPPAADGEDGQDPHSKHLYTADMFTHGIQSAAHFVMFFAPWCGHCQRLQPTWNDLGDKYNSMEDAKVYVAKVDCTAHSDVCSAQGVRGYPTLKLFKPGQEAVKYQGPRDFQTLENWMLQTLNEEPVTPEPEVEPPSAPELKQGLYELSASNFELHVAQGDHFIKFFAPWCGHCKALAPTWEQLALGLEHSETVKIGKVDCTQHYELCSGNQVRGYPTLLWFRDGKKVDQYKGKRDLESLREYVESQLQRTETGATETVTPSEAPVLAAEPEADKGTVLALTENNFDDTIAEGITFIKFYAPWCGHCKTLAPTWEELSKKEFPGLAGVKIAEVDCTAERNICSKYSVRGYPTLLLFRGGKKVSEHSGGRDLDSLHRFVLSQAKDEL
T2 sequence (Q91W90 34-417, one chain of several): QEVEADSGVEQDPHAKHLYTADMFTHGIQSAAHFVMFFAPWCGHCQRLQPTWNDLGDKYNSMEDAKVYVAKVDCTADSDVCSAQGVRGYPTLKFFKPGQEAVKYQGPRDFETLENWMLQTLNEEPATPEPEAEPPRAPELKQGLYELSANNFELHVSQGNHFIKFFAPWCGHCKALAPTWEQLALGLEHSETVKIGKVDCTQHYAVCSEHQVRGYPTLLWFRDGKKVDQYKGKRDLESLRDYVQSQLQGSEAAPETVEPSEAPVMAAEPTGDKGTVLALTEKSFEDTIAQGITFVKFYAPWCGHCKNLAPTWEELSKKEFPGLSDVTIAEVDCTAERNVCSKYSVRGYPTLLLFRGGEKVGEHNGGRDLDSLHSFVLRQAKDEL

B1: Aptamer-3 (ssDNA)
DNA: AGCAGCACAGAGGTCAATGTAATCTTTATCTATCGGCGTGCTACCGTGAA
Consider B1, for which the IC50 (usually the concentration that inhibits the measured activity by half) in the series with TXNDC5 (wild type) [1] (double stem-loop (predicted)) was 214 µM. In addition, the Kd (as a rule, the equilibrium constant for the complex coming apart) with TXNDC5 [2] was 0.0075 µM.

B2: Aptamer-7 (ssDNA)
DNA: AGCAGCACAGAGGTCAGGAACCTTATGCCTATGTAGCGTGCTACCGTGAA
With B2, the IC50 with TXNDC5 (wild type) [1] (double stem-loop (predicted)) was 241 µM. The Kd in the series with TXNDC5 (wild type) [3] is 0.0169 µM.

B3: Aptamer-11 (ssDNA)
DNA: AGCAGCACAGAGGTCTCTTATTACTCTCCCGTACCGCGTGCTACCGTGAA
Consider B3, for which the half-inhibitory concentration (IC50) with TXNDC5 (wild type) [1] (single stem-loop (predicted)) is 263 µM. Besides, the binding result with TXNDC5 [4] is recorded as “binds”.

The values above are taken from US20230304019, “DNA APTAMER, PHARMACEUTICAL COMPOSITION COMPRISING SAME, METHOD FOR INHIBITING CATALYTIC ABILITY OF TXNDC5, AND METHOD FOR PREVENTING OR TREATING ORGAN FIBROSIS” (CHI-HUA FUNDATION, published 2023).
